B1: SEQ ID NO 207 (designed binder)
chain: VSDVPRDLEVVAATPTSLLISWDAPAVTVRSYYIGYSAYDEYGGRQEFTVPGSKSTATISGLKPGVSYSINVFAVYTMTGRAPISINYRT
B2: SEQ ID NO 201 (designed binder)
chain: VSDVPRDLEVVAATPTSLLISWDAPAVTVRGYYISYYYHSTRDSQEFTVPGSKSTATISGLKPGVSYYVGVGAVWKKDYYFPISINYRT
B3: SEQ ID NO 214 (designed binder)
chain: VSDVPRDLEVVAATPTSLLISWDAPAVTVRSYHIYDYYNVHSYYGQEFTVPGSKSTATISGLKPGVSYAIYVGAVNEKQLGPISINYRT
B4: SEQ ID NO 187 (designed binder)
chain: PLSPPTNLHLEANPDTGVLTVSWERSTTSDITKYYIATWFGDYGYSLEEVVHADQSSCTFDNLSPGLQYGVSVATVKGGQAHYPISDTIIP
B5: SEQ ID NO 216 (designed binder)
chain: VSDVPRDLEVVAATPTSLLISWDAPAVTVREYSIYHSWTLVYRRQEFTVPGSKSTATISGLKPGVNYYIYVGAVDNGYGPDPISINYRT
B6: SEQ ID NO 198 (designed binder)
chain: PLSPPTNLHLEANPDTGVLTVSWERSTTPDITVYYIYTYTYNADLILEEVVHADQSSCTFDNLSPGLIYSVYVGTVASDDGRPISDTIIP
B7: SEQ ID NO 215 (designed binder)
chain: VSDVPRDLEVVAATPTSLLISWDAPAVTVRTYVISYMSYDAQGGQNQEFTVPGSKSTATISGLKPGVAYNIIVSAVGGGQQAVPISINYRT
B8: SEQ ID NO 210 (designed binder)
chain: VSDVPRDLEVVAATPTSLLISWDAPAVTVRKYYITYYRGRSGNQEFTVPGSKSTATISGLKPGVKYHILVSAVKYPFRRLPISINYRT
B9: SEQ ID NO 203 (designed binder)
chain: VSDVPRDLEVVAATPTSLLISWDAPAVTVRAYQIRYAYYSVGRQEFTVPGSKSTATISGLRPGVKYHISVYAVNGGMVTDPISINYRT
B10: SEQ ID NO 183 (designed binder)
chain: PLSPPTNLHLEANPDTGVLTVSWERSTTPDITKYIISTYVDYGGYLEEVVHADQSSCTFDNLSPGLGYSVTVSTVSAGWDSPISDTIIP
B11: SEQ ID NO 209 (designed binder)
chain: VSDVPRDLEVVAATPTSLLISWDAPAVTVRNYYIQYMVNYNDTQEFTVPGSKSTATISGLKPGVYYDIKVAAVYVAEDRPISINYRT
B12: SEQ ID NO 178 (designed binder)
chain: PLSPPTNLHLEVNPDTGVLTVSWERSTTPGITQYDIATLSYGGRSGGLEEVVHADQSSCTFDNLSPGLSYVVSVSTVTSNEYSAPISDTIIP
B13: SEQ ID NO 191 (designed binder)
chain: PLSPPTNLHLEANPDTGVLTVSWERSTTPDITRYYIRTSYVRHGRLEEVVHADQSSCTFDNLSPGLYYNVSVSTVGYYYMLPISDTIIP
B14: SEQ ID NO 180 (designed binder)
chain: PLSPPTNLHLEANPDTGVLTVSWERSTTPDITYYYIDTNGGYWSYLEEVVHADQSSCTFDNLSPGLGYPVGYVRTVYAGWLKGPISDTIIP
B15: SEQ ID NO 177 (designed binder)
chain: PLSPPTNLHLEANPDTGVLTVSWERSTTPDITMYSIYTYDYTRNYVLEEAVHADQSSCTFDNLSPGLYGYYVGVGTVTGAGWHPISDTIIP
B16: SEQ ID NO 189 (designed binder)
chain: PLSPPTNLHLEANPDTGVLTVSWERSTTPDITYYSITTSFYYSELEEVVHADQSSCTFDNLSPGLKYMVSVSTVSYSVGSPISDTIIP
B17: SEQ ID NO 202 (designed binder)
chain: VSDVPRDLEVVAATPTSLLISWDAPAVTVRYYYILYGDYNAYMDYAGQEFTVPGSKSTATISGLKPGVGYVEIDVYAVRTSEEQPISINYRT
B18: SEQ ID NO 193 (designed binder)
chain: PLSPPTNLHLEANPDTGVLTVSWERSTTPDITMYGIVTIYTRYYSLEEVVHADQSSCTFDNLSPGLIYWVYVLTVYYSWYRPISDTIIP
B19: SEQ ID NO 211 (designed binder)
chain: VSDVPRDLEVVAATPTSLLISWDAPAVTVRTYWIVYYRSVYSNGQEFTVPGSKSTATISGLKPGVIYSIRVIAVSYYYYGPISINYRT
B20: SEQ ID NO 212 (designed binder)
chain: VSDVPRDLEVVAATPTSLLISWDAPAVTVRTYSISYSFGLDYEYDQEFTVPGSKSTATISGLKPGVQYYIVVDAVAGWQYYPISINYRT
B21: SEQ ID NO 179 (designed binder)
chain: PLSPPTNLHLEANPDTGVLTVSWERSTTPDITMYDIKTIYYKAYYYGLEEVVHADQSSCTFDNLSPGLYYFVGVVTVERPRYYPISDTIIP
B22: SEQ ID NO 186 (designed binder)
chain: PLSPPTNLHLEANPDTGVLTVSWERSTTPDITGYSIATYLTYSNLVGLEEVVHADQSSCTFDNLSPGLSYKVSVYTVYGYSYGPISDTIIP
B23: SEQ ID NO 196 (designed binder)
chain: PLSPPTNLHLEANPDTGVLTVSWERSTTPDITYYYIHTYYWKHWQSLEEVVHADQSSCTFDNLSPGLKYGVWVSTVYRVVYYPISDTIIP
B24: SEQ ID NO 194 (designed binder)
chain: PLSPPTNLHLEANPDTGVLTVSWERSTTPDITTYVIDTGAAVNYVLEEVVHADQSSCTFDNLSPGLQYSVDVVVTVWYSWYMPISDTIIP
B25: SEQ ID NO 182 (designed binder)
chain: PLSPPANLRLEANPDTGVLTVSWERSTTPDITRYVIATGYGGSWYHLEEVVHADQSRCTFDNLSPGLAYYVDVYTVTPGEKHSPISDTIIP
B26: SEQ ID NO 199 (designed binder)
chain: PLSPPTNLHLEANPDTGVLTVSWERSTTPDITAYVIYTYSESDGRVLEEVVHADQSSCTFDNLSPGLRYSVKVSTVYYSYAYPISDTIIP
B27: SEQ ID NO 205 (designed binder)
chain: VSDVPRDLEVVAATPTSLLISWDAPAVTVRIYSIYYYSYVMRGYYFQEFTVLGSKSTATISGLKPGVNYDINVQAVYHRGWRYPISINYRT
B28: SEQ ID NO 184 (designed binder)
chain: PLSPPTNLHLEANPDTGVLTVSWERSTTPDITSYRISTEWRWRYTGLEEVVHADQSSCTFDNLSPGLIYGVGVSTVWKHNSQAPISDTIIP
B29: SEQ ID NO 213 (designed binder)
chain: VSDVPRDLEVVAATPTSLLISWDAPAVTVRGYSIKYGSTISADQEFTVPGSKSTATISGLKPGVFYVIMVWAVYYAYANYPISINYRT
B30: SEQ ID NO 185 (designed binder)
chain: PLSPPTNLHLEANPDTGVLTVSWERSTTPDITMYYISTGGSSYKPDRLEEVVHADQSSCTFDNLSPGLDYMVYVRTVMYYNRSPISDTIIP
B31: SEQ ID NO 195 (designed binder)
chain: PLSPPTNPHLEANPDTGVLTVSWERSTTPDITTYWIGTYYSADERLEEVVHADQSSCTFDNLSPGLYYAVVVGTVGVWYRVAPISDTIIP
B32: SEQ ID NO 192 (designed binder)
chain: PLSPPTNLHLEANPDTGVLTVSRERSTTPDITTYSIYTHSGALYVLEEVVHADQSSCTFDNPSPGLNYNVSVSTVHSRWRYGPISDTIIP
B33: SEQ ID NO 181 (designed binder)
chain: PLSPPTNLHLEANPDTGVLTVSWERSTTPDITYYYIGTYQGTTYEHLEEVVHADQSSCTFDNLSPGLIYLVYVSTVYWDSMSSPISDTIIP
B34: SEQ ID NO 197 (designed binder)
chain: PLSPPTNLHLEASPDTGVLTVSWERSTTPDITTYLILTYLGYSRVLEEVVHADQSSCTFDNLSPGLWYMVYVDTVGRVPYIGPISDTIIP
B35: SEQ ID NO 206 (designed binder)
chain: VSDVPRDLEVVAATPTSLLISWDAPAVAVRAYSIDYYHDNGDGTQEFTVPGSKSTATISGLKPGVTYGILVYAVVSNMGIPISINYRT
B36: SEQ ID NO 188 (designed binder)
chain: PLSPPTNLHLEANPDTGVLTVSWERSTTPDITKYYILTSGYWGGGLEEVVHADQSSCTFDNLSPGLTYLVSVWTVTHYAGYPISDTIIP
B37: SEQ ID NO 204 (designed binder)
chain: VSDVPRDLEVVAATPTSLLISWDAPAVTVRYYWIIYWEAWEYVQAQEFTVPGSKSTATISGLKPGVHYGIMVSAVSGEQPWYPISINYRT
B38: SEQ ID NO 208 (designed binder)
chain: VSDVPRDLEVVAATPTSLLISWDAPAVTVRKYSIYYFSSYSGIAQEFTVPGSKSTATISGLKPGVYYGIYVEAVYHHYSPPISINYRT

Target: T1, human serum albumin (human, UniProt P02768 25-609)
T1 construct: also called HSA
Experiment: cradle library selection hit

T1 sequence (P02768 25-609 limits assumed): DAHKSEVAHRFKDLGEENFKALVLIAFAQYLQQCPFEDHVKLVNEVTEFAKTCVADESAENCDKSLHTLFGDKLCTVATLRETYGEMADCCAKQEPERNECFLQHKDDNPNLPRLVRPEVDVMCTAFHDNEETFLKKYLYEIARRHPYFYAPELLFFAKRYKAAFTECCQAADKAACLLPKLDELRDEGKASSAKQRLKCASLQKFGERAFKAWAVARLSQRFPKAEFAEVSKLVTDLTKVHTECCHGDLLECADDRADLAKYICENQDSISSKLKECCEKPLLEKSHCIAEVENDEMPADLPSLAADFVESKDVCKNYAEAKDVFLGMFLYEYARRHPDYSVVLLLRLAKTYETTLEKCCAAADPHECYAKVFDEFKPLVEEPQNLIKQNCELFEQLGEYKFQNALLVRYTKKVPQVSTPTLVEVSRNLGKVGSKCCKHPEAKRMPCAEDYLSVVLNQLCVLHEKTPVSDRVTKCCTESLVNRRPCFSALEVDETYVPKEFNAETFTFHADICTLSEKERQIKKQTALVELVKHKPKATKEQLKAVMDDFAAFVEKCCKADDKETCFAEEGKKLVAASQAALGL

Binding result, binds:
B1, B2, B3, B4, B5, B6, B7, B8, B9, B10, B11, B12, B13, B14, B15, B16, B17, B18, B19, B20, B21, B22, B23, B24, B25, B26, B27, B28, B29, B30, B31, B32, B33, B34, B35, B36, B37, B38

— patent publication US20140057807A1 (UNIVERSITY OF CHICAGO, published 2014)
